Experimental data published in patent publication US20020062008A1.

What was measured:
[1] = biological target: soluble human αd/CD18 leucine zipper heterodimer (human) (UniProt P05107); assay: ELISA, CAM/Ig on αd/CD18LZ captured with 212D
[2] = biological target: LFA-1 leucine zipper fusion protein (soluble CD11a/CD18) (UniProt P20701); assay: ELISA, CAM/Ig on captured soluble CD11a/CD18

B1: soluble VCAM-1/IgG1 fusion protein (seven extracellular immunoglobulin-like domains) (Fc fusion, UniProt P19320 25-698, looked up, not shown: a dimerising Fc or GST)
chain: FKIETTPESRYLAQIGDSVSLTCSTTGCESPFFSWRTQIDSPLNGKVTNEGTTSTLTMNPVSFGNEHSYLCTATCESRKLEKGIQVEIYSFPKDPEIHLSGPLEAGKPITVKCSVADVYPFDRLEIDLLKGDHLMKSQEFLEDADRKSLETKSLEVTFTPVIEDIGKVLVCRAKLHIDEMDSVPTVRQAVKELQVYISPKNTVISVNPSTKLQEGGSVTMTCSSEGLPAPEIFWSKKLDNGNLQHLSGNATLTLIAMRMEDSGIYVCEGVNLIGKNRKEVELIVQEKPFTVEISPGPRIAAQIGDSVMLTCSVMGCESPSFSWRTQIDSPLSGKVRSEGTNSTLTLSPVSFENEHSYLCTVTCGHKKLEKGIQVELYSFPRDPEIEMSGGLVNGSSVTVSCKVPSVYPLDRLEIELLKGETILENIEFLEDTDMKSLENKSLEMTFIPTIEDTGKALVCQAKLHIDDMEFEPKQRQSTQTLYVNVAPRDTTVLVSPSSILEEGSSVNMTCLSQGFPAPKILWSRQLPNGELQPLSENATLTLISTKMEDSGVYLCEGINQAGRSRKEVELIIQVTPKDIKLTAFPSESVKEGDTVIISCTCGNVPETWIILKKKAETGDTVLKSIDGAYTIRKAQLKDAGVYECESKNKVGSQLRSLTLDVQGRENNKDYFSPE
[1]
  fold increase in signal above background: 5 fold

B2: ICAM-2/Ig (Fc fusion, part only; not given: Ig portion, UniProt P13598 25-223, looked up, part only)
chain, part: KVFEVHVRPKKLAVEPKGSLEVNCSTTCNQPEVGGLETSLDKILLDEQAQWKHYLVSNISHDTVLQCHFTCSGKQESMNSNVSVYQPPRQVILTLQPTLVAVGKSFTIECRVPTVEPLDSLTLFLFRGNETLHYETFGKAAPAPQEATATFNSTADREDGHRNFSCLAVLDLMSRGGNIFHKHSAPKMLEIYEPVSDSQ
[2]
  fold above background: 10 fold
